Data as given in PMC13384500, “RNA selectively modulates activity of virulent amyloid PSMα3 and host-defense LL-37 via phase separation and aggregation dynamics”.

T1: PSMα3 (Staphylococcus aureus, UniProt P0C805)
T1 chain: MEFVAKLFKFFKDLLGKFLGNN


Assays:
[1] = biological target: T1, PSMα3; experiment: EMSA; apparent Kd, Hill fit with n > 1; 40 nM RNA; conditions: tags: none (unlabeled)
[2] = biological target: T1, PSMα3; experiment: EMSA; apparent Kd, Hill fit with n > 1; 40 nM RNA; weaker than Poly(AU); conditions: tags: none (unlabeled)

Row | Binder | Kd [1] | Kd [2]
1 | Poly(AU) RNA (30-nt oligoA/oligoU) (dsRNA) RNA 1: AAAAAAAAAAAAAAAAAAAAAAAAAAAAAA RNA 2: UUUUUUUUUUUUUUUUUUUUUUUUUUUUUU | 61.8 ± 1.6 µM | –
2 | AAAAAAAAAAAAAAAAAAAAAAAAAAAAAA (ssRNA) [Poly(A) RNA (30-nt oligoA)] | – | 94.5 ± 5.4 µM
